# Reference: patent US20120172293A1 (Takeda / Millennium, published 2012)
# Starred links: 1 amine or outer side, 2 acyl side, 3 side chain; linkers in the order of their positions; H or OH if unused. Non-standard residues stand in square brackets, D forms with d. Primed or numbered codes have the meaning given here. *: point of attachment. Ser(Me)(3) = methylserine, COC[C@H](N[*:1])C(=O)[*:2]; Azetidine3carboxylic = O=C(C1CN([*:1])C1)[*:2]; dHyp = O=C(O)[C@H]1C[C@H](O)CN1; Cha = N[C@@H](CC1CCCCC1)C(=O)O; Isobutyryl = CC(C)C(=O)*; NMeA = CN[C@@H](C)C(=O)O; dNMeA = CN[C@H](C)C(=O)O; Nva = CCC[C@H](N)C(=O)O; Abu = CC[C@H](N)C(=O)O; Nleu = CC(C)CNCC(=O)O; Aib = CC(C)(N)C(=O)O; Bz = O=C(c1ccccc1)*; Sar = CNCC(=O)O
# B1: Ac-[D-MeAla24, Cha27,28,36, Aib31]-PYY(23-36) (peptide)
# peptide: Ac-S[dNMeA]RH[Cha][Cha]NL[Aib]TRQR[Cha]-NH2
# SMILES: CC(=O)N[C@@H](CO)C(=O)N(C)[C@H](C)C(=O)N[C@@H](CCCNC(=N)N)C(=O)N[C@@H](Cc1c[nH]cn1)C(=O)N[C@@H](CC1CCCCC1)C(=O)N[C@@H](CC1CCCCC1)C(=O)N[C@@H](CC(N)=O)C(=O)N[C@@H](CC(C)C)C(=O)NC(C)(C)C(=O)N[C@H](C(=O)N[C@@H](CCCNC(=N)N)C(=O)N[C@@H](CCC(N)=O)C(=O)N[C@@H](CCCNC(=N)N)C(=O)N[C@@H](CC1CCCCC1)C(N)=O)[C@@H](C)O
# B2: Benzoyl-[Nva27, Cha28,36, Aib31]-PYY(25-36) (peptide)
# peptide: Bz-RH[Nva][Cha]NL[Aib]TRQR[Cha]-NH2
# SMILES: CCC[C@H](NC(=O)[C@H](Cc1c[nH]cn1)NC(=O)[C@H](CCCNC(=N)N)NC(=O)c1ccccc1)C(=O)N[C@@H](CC1CCCCC1)C(=O)N[C@@H](CC(N)=O)C(=O)N[C@@H](CC(C)C)C(=O)NC(C)(C)C(=O)N[C@H](C(=O)N[C@@H](CCCNC(=N)N)C(=O)N[C@@H](CCC(N)=O)C(=O)N[C@@H](CCCNC(=N)N)C(=O)N[C@@H](CC1CCCCC1)C(N)=O)[C@@H](C)O
# B3: Ac-[D-Hyp24, Cha27,28,36, Aib31]-PYY(23-36) (peptide)
# peptide: Ac-S[dHyp]RH[Cha][Cha]NL[Aib]TRQR[Cha]-NH2
# SMILES: CC(=O)N[C@@H](CO)C(=O)N1C[C@@H](O)C[C@@H]1C(=O)N[C@@H](CCCNC(=N)N)C(=O)N[C@@H](Cc1c[nH]cn1)C(=O)N[C@@H](CC1CCCCC1)C(=O)N[C@@H](CC1CCCCC1)C(=O)N[C@@H](CC(N)=O)C(=O)N[C@@H](CC(C)C)C(=O)NC(C)(C)C(=O)N[C@H](C(=O)N[C@@H](CCCNC(=N)N)C(=O)N[C@@H](CCC(N)=O)C(=O)N[C@@H](CCCNC(=N)N)C(=O)N[C@@H](CC1CCCCC1)C(N)=O)[C@@H](C)O
# B4: Isobutanoyl-[Abu26, Cha27,36, Ser28, Aib31]-PYY(25-36) (peptide)
# peptide: Isobutyryl-R[Abu][Cha]SNL[Aib]TRQR[Cha]-NH2
# SMILES: CC[C@H](NC(=O)[C@H](CCCNC(=N)N)NC(=O)C(C)C)C(=O)N[C@@H](CC1CCCCC1)C(=O)N[C@@H](CO)C(=O)N[C@@H](CC(N)=O)C(=O)N[C@@H](CC(C)C)C(=O)NC(C)(C)C(=O)N[C@H](C(=O)N[C@@H](CCCNC(=N)N)C(=O)N[C@@H](CCC(N)=O)C(=O)N[C@@H](CCCNC(=N)N)C(=O)N[C@@H](CC1CCCCC1)C(N)=O)[C@@H](C)O
# B5: Ac-[D-Ser23, MeAla24, Cha27,28,36, Aib31]-PYY(23-36) (peptide)
# peptide: Ac-[dS][NMeA]RH[Cha][Cha]NL[Aib]TRQR[Cha]-NH2
# SMILES: CC(=O)N[C@H](CO)C(=O)N(C)[C@@H](C)C(=O)N[C@@H](CCCNC(=N)N)C(=O)N[C@@H](Cc1c[nH]cn1)C(=O)N[C@@H](CC1CCCCC1)C(=O)N[C@@H](CC1CCCCC1)C(=O)N[C@@H](CC(N)=O)C(=O)N[C@@H](CC(C)C)C(=O)NC(C)(C)C(=O)N[C@H](C(=O)N[C@@H](CCCNC(=N)N)C(=O)N[C@@H](CCC(N)=O)C(=O)N[C@@H](CCCNC(=N)N)C(=O)N[C@@H](CC1CCCCC1)C(N)=O)[C@@H](C)O
# B6: Ac-[Aze(3)24, Cha27,28,36, Aib31]-PYY(23-36) (peptide)
# peptide: Ac-S[Azetidine3carboxylic]RH[Cha][Cha]NL[Aib]TRQR[Cha]-NH2
# SMILES: CC(=O)N[C@@H](CO)C(=O)N1CC(C(=O)N[C@@H](CCCNC(=N)N)C(=O)N[C@@H](Cc2c[nH]cn2)C(=O)N[C@@H](CC2CCCCC2)C(=O)N[C@@H](CC2CCCCC2)C(=O)N[C@@H](CC(N)=O)C(=O)N[C@@H](CC(C)C)C(=O)NC(C)(C)C(=O)N[C@H](C(=O)N[C@@H](CCCNC(=N)N)C(=O)N[C@@H](CCC(N)=O)C(=O)N[C@@H](CCCNC(=N)N)C(=O)N[C@@H](CC2CCCCC2)C(N)=O)[C@@H](C)O)C1
# B7: Isobutanoyl-[Abu26, Cha27,36, His28, Aib31]-PYY(25-36) (peptide)
# peptide: Isobutyryl-R[Abu][Cha]HNL[Aib]TRQR[Cha]-NH2
# SMILES: CC[C@H](NC(=O)[C@H](CCCNC(=N)N)NC(=O)C(C)C)C(=O)N[C@@H](CC1CCCCC1)C(=O)N[C@@H](Cc1c[nH]cn1)C(=O)N[C@@H](CC(N)=O)C(=O)N[C@@H](CC(C)C)C(=O)NC(C)(C)C(=O)N[C@H](C(=O)N[C@@H](CCCNC(=N)N)C(=O)N[C@@H](CCC(N)=O)C(=O)N[C@@H](CCCNC(=N)N)C(=O)N[C@@H](CC1CCCCC1)C(N)=O)[C@@H](C)O
# B8: Ac-[Ser(Me)23, D-Pro24, Abu26, Cha27,28,36, Aib31]-PYY(23-36) (peptide)
# peptide: Ac-[Ser(Me)(3)][dP]R[Abu][Cha][Cha]NL[Aib]TRQR[Cha]-NH2
# SMILES: CC[C@H](NC(=O)[C@H](CCCNC(=N)N)NC(=O)[C@H]1CCCN1C(=O)[C@H](COC)NC(C)=O)C(=O)N[C@@H](CC1CCCCC1)C(=O)N[C@@H](CC1CCCCC1)C(=O)N[C@@H](CC(N)=O)C(=O)N[C@@H](CC(C)C)C(=O)NC(C)(C)C(=O)N[C@H](C(=O)N[C@@H](CCCNC(=N)N)C(=O)N[C@@H](CCC(N)=O)C(=O)N[C@@H](CCCNC(=N)N)C(=O)N[C@@H](CC1CCCCC1)C(N)=O)[C@@H](C)O
# B9: Ac-[N(iBu)Gly24, Cha27,28,36, Aib31]-PYY(23-36) (peptide)
# peptide: Ac-S[Nleu]RH[Cha][Cha]NL[Aib]TRQR[Cha]-NH2
# SMILES: CC(=O)N[C@@H](CO)C(=O)N(CC(=O)N[C@@H](CCCNC(=N)N)C(=O)N[C@@H](Cc1c[nH]cn1)C(=O)N[C@@H](CC1CCCCC1)C(=O)N[C@@H](CC1CCCCC1)C(=O)N[C@@H](CC(N)=O)C(=O)N[C@@H](CC(C)C)C(=O)NC(C)(C)C(=O)N[C@H](C(=O)N[C@@H](CCCNC(=N)N)C(=O)N[C@@H](CCC(N)=O)C(=O)N[C@@H](CCCNC(=N)N)C(=O)N[C@@H](CC1CCCCC1)C(N)=O)[C@@H](C)O)CC(C)C
# B10: Benzoyl-[His27, Cha28,36, Aib31]-PYY(25-36) (peptide)
# peptide: Bz-RHH[Cha]NL[Aib]TRQR[Cha]-NH2
# SMILES: CC(C)C[C@H](NC(=O)[C@H](CC(N)=O)NC(=O)[C@H](CC1CCCCC1)NC(=O)[C@H](Cc1c[nH]cn1)NC(=O)[C@H](Cc1c[nH]cn1)NC(=O)[C@H](CCCNC(=N)N)NC(=O)c1ccccc1)C(=O)NC(C)(C)C(=O)N[C@H](C(=O)N[C@@H](CCCNC(=N)N)C(=O)N[C@@H](CCC(N)=O)C(=O)N[C@@H](CCCNC(=N)N)C(=O)N[C@@H](CC1CCCCC1)C(N)=O)[C@@H](C)O
# B11: Ac-[Abu23, D-Pro24, Abu26, Cha27,28,36, Aib31]-PYY(23-36) (peptide)
# peptide: Ac-[Abu][dP]R[Abu][Cha][Cha]NL[Aib]TRQR[Cha]-NH2
# SMILES: CC[C@H](NC(=O)[C@H](CCCNC(=N)N)NC(=O)[C@H]1CCCN1C(=O)[C@H](CC)NC(C)=O)C(=O)N[C@@H](CC1CCCCC1)C(=O)N[C@@H](CC1CCCCC1)C(=O)N[C@@H](CC(N)=O)C(=O)N[C@@H](CC(C)C)C(=O)NC(C)(C)C(=O)N[C@H](C(=O)N[C@@H](CCCNC(=N)N)C(=O)N[C@@H](CCC(N)=O)C(=O)N[C@@H](CCCNC(=N)N)C(=O)N[C@@H](CC1CCCCC1)C(N)=O)[C@@H](C)O
# B12: Benzoyl-[Asn26, Cha27,28,36, Aib31]-PYY(25-36) (peptide)
# peptide: Bz-RN[Cha][Cha]NL[Aib]TRQR[Cha]-NH2
# SMILES: CC(C)C[C@H](NC(=O)[C@H](CC(N)=O)NC(=O)[C@H](CC1CCCCC1)NC(=O)[C@H](CC1CCCCC1)NC(=O)[C@H](CC(N)=O)NC(=O)[C@H](CCCNC(=N)N)NC(=O)c1ccccc1)C(=O)NC(C)(C)C(=O)N[C@H](C(=O)N[C@@H](CCCNC(=N)N)C(=O)N[C@@H](CCC(N)=O)C(=O)N[C@@H](CCCNC(=N)N)C(=O)N[C@@H](CC1CCCCC1)C(N)=O)[C@@H](C)O
# B13: Ac-[Phe23, D-Pro24, Abu26, Cha27,28,36, Aib31]-PYY(23-36) (peptide)
# peptide: Ac-F[dP]R[Abu][Cha][Cha]NL[Aib]TRQR[Cha]-NH2
# SMILES: CC[C@H](NC(=O)[C@H](CCCNC(=N)N)NC(=O)[C@H]1CCCN1C(=O)[C@H](Cc1ccccc1)NC(C)=O)C(=O)N[C@@H](CC1CCCCC1)C(=O)N[C@@H](CC1CCCCC1)C(=O)N[C@@H](CC(N)=O)C(=O)N[C@@H](CC(C)C)C(=O)NC(C)(C)C(=O)N[C@H](C(=O)N[C@@H](CCCNC(=N)N)C(=O)N[C@@H](CCC(N)=O)C(=O)N[C@@H](CCCNC(=N)N)C(=O)N[C@@H](CC1CCCCC1)C(N)=O)[C@@H](C)O
# B14: Ac-[D-Ser23, Sar24, Cha27,28,36, Aib31]-PYY(23-36) (peptide)
# peptide: Ac-[dS][Sar]RH[Cha][Cha]NL[Aib]TRQR[Cha]-NH2
# SMILES: CC(=O)N[C@H](CO)C(=O)N(C)CC(=O)N[C@@H](CCCNC(=N)N)C(=O)N[C@@H](Cc1c[nH]cn1)C(=O)N[C@@H](CC1CCCCC1)C(=O)N[C@@H](CC1CCCCC1)C(=O)N[C@@H](CC(N)=O)C(=O)N[C@@H](CC(C)C)C(=O)NC(C)(C)C(=O)N[C@H](C(=O)N[C@@H](CCCNC(=N)N)C(=O)N[C@@H](CCC(N)=O)C(=O)N[C@@H](CCCNC(=N)N)C(=O)N[C@@H](CC1CCCCC1)C(N)=O)[C@@H](C)O
# B15: Isobutanoyl-[Abu26, Cha27,36, Gln28, Aib31]-PYY(25-36) (peptide)
# peptide: Isobutyryl-R[Abu][Cha]QNL[Aib]TRQR[Cha]-NH2
# SMILES: CC[C@H](NC(=O)[C@H](CCCNC(=N)N)NC(=O)C(C)C)C(=O)N[C@@H](CC1CCCCC1)C(=O)N[C@@H](CCC(N)=O)C(=O)N[C@@H](CC(N)=O)C(=O)N[C@@H](CC(C)C)C(=O)NC(C)(C)C(=O)N[C@H](C(=O)N[C@@H](CCCNC(=N)N)C(=O)N[C@@H](CCC(N)=O)C(=O)N[C@@H](CCCNC(=N)N)C(=O)N[C@@H](CC1CCCCC1)C(N)=O)[C@@H](C)O
# Target: human Y2 receptor (human) (UniProt P49146)
# Sequence (P49146 whole entry): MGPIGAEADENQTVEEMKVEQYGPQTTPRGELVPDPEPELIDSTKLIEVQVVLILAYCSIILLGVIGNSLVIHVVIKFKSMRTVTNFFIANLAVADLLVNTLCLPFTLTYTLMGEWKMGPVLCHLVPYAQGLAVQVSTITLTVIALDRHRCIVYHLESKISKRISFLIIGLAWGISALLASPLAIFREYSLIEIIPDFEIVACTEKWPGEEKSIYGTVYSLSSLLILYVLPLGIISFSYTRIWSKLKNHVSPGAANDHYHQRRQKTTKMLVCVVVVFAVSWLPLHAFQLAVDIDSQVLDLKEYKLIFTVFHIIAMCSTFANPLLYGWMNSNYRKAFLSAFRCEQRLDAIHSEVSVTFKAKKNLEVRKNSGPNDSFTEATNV
# Assay: cell-based or functional assay
row,"GBA EC50 Ratio (vs PYY(3-36)), [35S]GTPγS",Binder
1,2.2,B1
2,8.6,B2
3,0.9,B3
4,35,B4
5,5.1,B5
6,4.7,B6
7,13,B7
8,3.8,B8
9,8.4,B9
10,4.3,B10
11,4,B11
12,21,B12
13,5.9,B13
14,5.3,B14
15,30,B15

# Target: human Y2 receptor (human) (UniProt P49146)
# Assay: RBA: [125I]-PYY displacement, hY2R/CHO membranes
row,IC50 Ratio (vs PYY(3-36)),Binder
1,3.4,B1
2,13,B2
3,1.1,B3
4,49,B4
5,6.1,B5
6,11,B6
7,19,B7
8,5.2,B8
9,20,B9
10,5.6,B10
11,6.9,B11
12,19,B12
13,12,B13
14,6.6,B14
15,45,B15
